Test results: publication PMC11157650
Blank lines part the entries; values can stand above or below the molecule they belong to.

Assays:
[1] = target: Fc part of the IgM protomer left after IgMBRAZOR cleavage (two mu chain fragments from Ala344 to the C-terminus) (human); assay: SEC + native MS; online SEC-Orbitrap-based CDMS of IgM co-expressed with the J-chain, undigested or digested with IgMBRAZOR; sample in PBS, 0.5 μg injected; mobile phase 100 mM ammonium acetate pH 6.8; the oligomer is held by disulfide bonds
[2] = target: Recombinant anti-StrepTag IgM protomer (two mu heavy chains and two kappa light chains); assay: as above

stoichiometry N [1]: 5
Molecule: Fc part of the IgM protomer left after IgMBRAZOR cleavage (two mu chain fragments from Ala344 to the C-terminus) (domain or fragment)

stoichiometry N [2]: 5
B1: Recombinant anti-StrepTag IgM protomer (two mu heavy chains and two kappa light chains) (antibody, V domains shown)
VH: EVQLEQSGPELVKPGASVKMSCKASGYTFTNYYMKWVKQSHGKSLEWIGDLNPNNGDTFYNQKFKGKATLTVDKSSNTAYMQLNSLTSEDSAVYYCARTGRYEENAMDYWGQGTSVTVSS
VL: ELVMTQSPASLAVSLGQRATISCRASESVDSYGKSFMHWYQLKPGQPPKLLIYRASNLESGVPARFSGSGSRTDFTLTIDPVEADDAATYYCQQNNEDPWTFGGGTKLEIK
